Laboratory results taken from the nanobody polyreactivity screen of Harvey et al. (2022).

Assay: yeast display, Sf9 membrane polyspecificity reagent, FACS + sequencing; frameworks hold sequencing errors
How it was run: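 Using colony PCR, genes from sorted yeast display clones were amplified, then sequenced on MiSeq at 2 × 250 and filtered by CDR length. The clones had been stained with 10% biotinylated, detergent-solubilized Sf9 membrane reagent for 1 hour at 4 °C and sorted by FACS into low and high (top ~1%) gates on anti-HA and streptavidin fluorescence. Polyreactivity labels come from the gate of origin.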

Row | Sequence | polyreactivity (PSR sort gate)
1 | QVQLVESGGGLVHAGGSLRLSCAASGSTFNTNTMGWYRQAPGKERELVAAITKSGGSTYYADSVKGRFTISRDNAKNTVYLQMNSLKPEDTAVYYCNAYPDDSYKYLYWSDGDYWGQGTQVTVSS | low polyreactivity
2 | QVQLEESGGGLVQAGGSLRLSCAASGSIFFYYAMGWYRQAPGKERELVAAIRSGTSTNYADSVKGRFTISRDNAKNTVYLQMNSLKPEDTAVYYCAARFPGGCYGMDYWGQGTQVTVSS | low polyreactivity
3 | QVQLVESGGGLVQAGGSLRLSCAASGIIFYDNALGWYRQAPGKERELVAALDSDGSTDYADSVKGRFTISRDNAKNTVYLQMNSLKPEDTAVYYCAADLVWYASGRYIYRGYDYWGQGTQVTVSS | low polyreactivity
4 | QVQLVESGGGLVQAGGSLRLSCAASGSIFRGNAMGWYRQAPGKERELVAGINRAGSTKYADSVKGRFTISRDNAKNTVYLLMNSLKPEETAVYYCAARGYSSEYDYWGKGTQVTVSS | high polyreactivity
5 | QVQLVESGGGFVQAGGSLRLSCAACGRIFATYAMRWYRQAPGKERELVASFSYSDGSTYADSVKGRFTISRDNAKNTVYLQMNSLKPEDTAVYYCAAERLTHWGAFAAYDYWGQGTQVTVSS | low polyreactivity
6 | QVQLVESGGGLVQAGGSLRLSCAASGFTFQWYAMGWYRQAPGKERELVAGITSGASTNYADSVKGRFTISRDNAKNTVYLQMNSLKPEDTAVYYCAARRWREGARYSYWGQGTQVTVSS | high polyreactivity
7 | QVQLVESGGGLVQAGGSLRLSCAASGITFSRYAMGWYRQAPGKERELVASISTSGGSTYYADSVKGRFTISRDNAKNTVYLQMNSLKPEDTAVYYCAASVWSSRRFGYWGQGTQVSVSS | high polyreactivity
8 | QVQLVESGGGLFQAGGSLRLSCAASGSISYYNAMGWYRQAPGKERELVATITDSGGSTYYADSVKGRFTISRDIAKNTVYLQMISLKPEDTAVYYCAVDFSEWYSIYDYWGQGTQVTVSS | low polyreactivity
9 | QVLLVESGGGLVQAGGSLRLSCAASGFIFVDYAMGWYRQAHGKERELVAAITSSGDRTYYADSVKGRFTISRDNAKNTVYLQMNSLKPEDTAVYYCNADWSTACYTSYDYWGQGTQVTVSS | low polyreactivity
10 | QVQLVESGGGLVQAGGSLRLSCAASGRIFQKYAMGWYRQAPGKERELVAAISSGDSTYADSVKGRFTISRDNAKNTVYLQMNSLKPEDTAVYYCAVDLYDPWWYSYIGEYEYWGQGTQVTVSS | low polyreactivity
11 | QVQRVESGGGLVQAGGSLRLSCAASANTYLNAMGWYIQAPGKESELVAAISKGGADTYYADSVKGRFTISRDNAKNTVYLQMTSLIPEDSAVYYCADVGYADGWWVDYPWTYDYWGQGTQVTVSS | low polyreactivity
12 | QVQLVESGGGLVQAGGSLRLSCAASGSTFALNAMGWYRQAPGKERELVAAISGRGGSTYYADSVKGRFTISRDNAKNTVYLQMNSLKPEDTAVYYCAATSRVYVRGSYWKYGYWGQGTQVTVSS | high polyreactivity
13 | QVQLVESGGGLVQAGGSHRLSCAATGLTFAYYDMGWYRQAPGKERELVAAITSGGTTNYADSVKGRFTISRDNAKNTVYLQMNSLKPEDTAVYYCNADYYSRIVGVRIYDYWGQGTQVTVSS | low polyreactivity
14 | QVQLVESGGGLVQAGGSLRLTCAASGRTFSYYTIGWYRQAPGKELELVADITGSGGSTYYADSVKGRFTISRDNAKNTVYLQINSLKPEDTAVYYCSAGWPYVYYTWYWTMDYWGQGTQVTVSS | high polyreactivity
15 | QVQLVESGGGLVQAGGRLRLSCAASGSTSVYYARGWYRQAPGKERELVAGITSGGNTNYADSVKGRFTISRDNAKNTVYFQMISLNPEDTSVYYCNAVYIVTVGWIRLGSYYYWGQGTQVTVSS | low polyreactivity
16 | QVQLVESGGGLVQAGGSLRLSCAASGSTFLAYTMGWYRQAPEKERELVADNTSNGGSTYYADSVKGRFTISRDNAKNTVYLQMNSLKPEDTAVYYCNTGSGAGITRPDDDFNYWGQGTQVTVSS | low polyreactivity
17 | QVQLVESGGGLVQAGGSLRLSCAASGRIFSSNAMGWYRQAPGKERELVAAITSGGSTYADSVKGRFTISRDNAKNTVYLQMNSLKPEDTAVYYCAKDGPGGGTRIYDYWGHGTQVTVSS | high polyreactivity
18 | QVQLVESGGGLVQAGGSLRLSCAASGSTFHRYTMGWYRQAPGKERELVAAISSGGRTYYADSVKGRFTISRDNAKNTVYLQKNSLKPEDTAVYYCNSRYPRQYWGGYDYWGQGTQVTVSS | high polyreactivity
19 | QVQLVESGGGLVQAGGSLRLSSAASGRTFFINAMGWYRQAPGKERDLVATITSGGITNYADSVKGRFTISRDNAKNTDYLQMNSLKPEDTAVYYCAVRWYGKYSGVRYYYWGQGTQVTVSS | high polyreactivity
20 | QVQLVESGGGLVQAGGSLRLSCAASGSIFLTNAMGWYRQAPGKEREFVAAIDWGGTITYYADSVKGRFTISRDNAKNTVYLQMNSLKPEDTAVYYCAADPTYPYGYWGQGTQVTVSS | low polyreactivity
21 | QVQLVETVGGLVQAGGSLRLTCAASGFTIYYNAMGWYRQAPGKERELVASISSNGTSTYYADSVKGRFTISRDNAKNTVYLQMNSLKPEDTAVYYCNVDIFDPRTYDYWGQGTQVTVSS | low polyreactivity
22 | QVQLVESGGGLVQAGGSLRLSCAASGLTFPPNAMGWYRQAPGKEREFVAVISSGGGSTYYADSVKGRFTISRDNAKNTVYLQMNSLKPEDTAVYYCNTYYWYSGSPYDYWGQGTQVTVSS | low polyreactivity

Row | Sequence | polyreactivity (PSR sort gate)
23 | QVQLVESGGGLVQAGGSLRLSCAAYGFIFKKYAMGWYRQAPGKERELVAAISGSSTRTYYADSVKGRFTISRDNAKKTVYLQMHSLKPEDTAVYYCVGRFYERDYWGQGTQVTVSS | high polyreactivity
24 | QVQLVESGGGLVQAGGSLRLSCAASGRTYGYAMGWYTQAPGIERELVARINRTTGSTYYADSVKGRFTISRDNAKNTVYLQMNSLKPQDTAVYYCAKSSYSRALKLYYWGQGSQVTVSS | high polyreactivity
25 | QVQLVESGGGLVQSGGSLRLSCAASGLIIGLYAMGWYRQAPGTERELVAAISDNGARTYYADSVKGRFTISRDYAKYTVYLQMNSLKPEDTAVDYCARDQSYHYNYWGQGTQVTVSS | low polyreactivity
26 | QVQLVESGGGLVQAGGSLRLSCAASGTFVTYMGLYRQAPGKERELVAAIRNGGSTNYADSVKGRFTISRDNAKNTVYLQMNSLKPEDTAVDYFTADYTYWNGWFATRDYWGQGTQVTVSS | low polyreactivity
27 | QVQIVESGGGLVQAGGSLRLSCAASGSIFRSYAMGWYRQAPGKERELVAAITSSSGSTYYADSVKGRFTISRDNAKNTVYLQMNSLKPEDTAVYSCAAGSPRRYRYDYWGQGTQVTVSS | high polyreactivity
28 | QVQLVESGGGLVQAGGSLRLSCAASGRTFGYYAMGWYRPAPGKERELVASITGGGSTNYADSVKGRFTISRDNAKNTVYLQMNSLKPEDTAVYYCAAETITDDYYEYDYWGQGTQVTVSS | low polyreactivity
29 | QVQLVESGGGLVQAGGSLRLSCAASGLTFNRYAMGCYRQAPGKEREFVAAISVRSGSTYYADSVKGRFTISRDNAKNTVYLQMNSLKPEDTAVYYCAAKIRKDYSIQGYDYWGQGTQVTVSS | high polyreactivity
30 | QVQLVESGGGLVQAGGSLRLTCAASGSIVWYAMGSYRQATGKEREVVAAISRRGGSTYYADSVKGRFTISRDNAKNTVYLQSKSLKSEDTAVYYCADRPAREEYDYWGQGTQVTVSS | high polyreactivity
31 | QVQLVESGGGLVQAGGRLRISCAASGRTFYRYAMGWYRQAPGKERELVAAITYSGGSTNYADSVKGRFTISRDYAKNTVYLQMNSLKPEDTAVYYCATRYNVVRWPYYYWGQGTQVNVSS | high polyreactivity
32 | QVQLVESGGGLVQAGGSLRLSCAASGGTLDVYAMGWYRQAPGKEREFVAAISWSGGRTYYADSVKGRFTISRDNAKNTVYLQMNSLKPEDTAVYYCATRDRAGYYYWGQGTQVTVSS | high polyreactivity
33 | QVQLVESGGGLVQAGGSLRLSCAASGSIFNWYTMGWYRQAPGKERELVAVITQSGGSTYYADSVKGRFTISRDNAKNTVYLQMNSLKPEDTAVYYCAKRYWSYQYGYRMYYWGQGTQVTVSS | high polyreactivity
34 | QVQLVESGGGLVQAGGSLRLSCAASGSILARYAMGWYRQAPGKERELVAAISYNGGSTYYADSVKGRFTISRDNAKNTVYLQMNSRKPEDTAVYYCAKAYDTTLTYNYWGQGTQVTVSS | low polyreactivity
35 | QVQLVESVVGLVQAGGSLRLRCAASGIIFSKYAMGWYIQEPGKERELVARISWRGGDTYYADSVKGRFTISRDNAKNTVYLKMNSMKQEDTSVYYFNARIWGRYFSYTRFDYWGQCTQVTVSS | high polyreactivity
36 | QVQLVESVGGLVQAGGSLRLSCAASGRTFVRYTMGWYRQAPGKERELVAAITWSGGSTYYADSVKGRFTISRDNATNTVYLQMNSLKPEDTAVYDCAARTYFGTQLQRYYWGQGTQVTVSS | high polyreactivity
37 | QVQLVESGGGLVQAGGSLRLSCAASGFTFALYAMGWYRQAPGKERELVASIDNGVSTNYADSVKGRFTISRDNAKNTVYLQMTSLKPEDTAVYYCAKGPGYGLYKLLSYDSWGQGTQVTVSS | low polyreactivity
38 | QVQLVESGGGLVQAGGSLRLSCAASGRILPGYAMGWYRQAPGKERELVAAIRGNGDSTYYADSVKGRFTISRDNAKNTVYLQMNSLKPEDTAVYYCAARRVSTIQRDSYRGRKYGYWGQGTQVTVSS | low polyreactivity
39 | QVQLVESGGGLVQAGGSLRLSCAASGRTFRSYAMGWYRQAPGKERELVAAISDGGSTNYADSVKGRFTISRDNAKNTVYLQMNSLKPEDTAVYYCAAEIFFAVFRFYYWGQGTQVTVSS | low polyreactivity
40 | QVQLVESGGGLVQAGGSLRLSCAASGITIKAYAMGWYRQAPGKERELVAAISGSGGSTYYADSVEGRFTISRDNAKNTVYLQMNSLKPEDTAVYYCAARAVSLTGYRFGYWGQGTQVTVSS | high polyreactivity
41 | QVQLVESRGVLVQAGGSLRLSCAASGSNFYVYAMGWYRPAPGKERELVAGISWSADSTYYADSVKGRFTISRDNAKYTVYLQMNSLKPEDSAVYYCATDRYPTRRYDYWGQGTQVTVSS | low polyreactivity
42 | QVQLVESGGGLVQAGGSLSLSCAASGFTFYSYTMGWYRQAPGKDREMVAAISGRSVRTYYADSVKGRFTISRDNAKNTVYLQMNSLKPEDTAVYYCARAYYWRTSWYNYWGQGTQVTVSS | high polyreactivity
43 | QVQLVESGGGLVQAGGSLRLSCAASGFTFEEYAMGWYRQAPGKERELVAAIDYTVGSTYYADSVKGRFTISRDNAKNTVYLQMNSLKPEDTAVYYCNVDLSYSFNSAYGYWGQGTQVTVSS | low polyreactivity
